These are literature values, as cited in article PMC3091359.

This series concerns the target (Pro)renin (Homo sapiens) (UniProt P00797).
Sequence of UniProt P00797 (P00797 67-406): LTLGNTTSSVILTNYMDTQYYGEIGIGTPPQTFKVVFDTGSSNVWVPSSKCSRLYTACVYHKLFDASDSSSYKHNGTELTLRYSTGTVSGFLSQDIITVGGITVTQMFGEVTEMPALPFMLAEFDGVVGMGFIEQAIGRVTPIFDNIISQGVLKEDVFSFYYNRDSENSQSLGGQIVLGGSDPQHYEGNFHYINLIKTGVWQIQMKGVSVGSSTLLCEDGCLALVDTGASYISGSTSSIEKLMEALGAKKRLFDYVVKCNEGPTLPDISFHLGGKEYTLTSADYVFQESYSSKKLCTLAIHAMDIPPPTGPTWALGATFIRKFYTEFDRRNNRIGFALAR

Turning to “(Pro)renin receptor (from UniProt Q6AXS4)”, the Kd (as a rule, a measure of binding affinity in units of concentration) is 3.7 nM.
